Common to all, as to assay: SPR
Background: Surface plasmon resonance follows binding to a sensor surface in real time, without labels.

The target of assay [1] is T1, human MDGA1 WT soluble ectodomain (residues 22-920, lacking the GPI anchor region), (His)6-tagged (human, UniProt Q8NFP4-1 22-920).
T1 sequence: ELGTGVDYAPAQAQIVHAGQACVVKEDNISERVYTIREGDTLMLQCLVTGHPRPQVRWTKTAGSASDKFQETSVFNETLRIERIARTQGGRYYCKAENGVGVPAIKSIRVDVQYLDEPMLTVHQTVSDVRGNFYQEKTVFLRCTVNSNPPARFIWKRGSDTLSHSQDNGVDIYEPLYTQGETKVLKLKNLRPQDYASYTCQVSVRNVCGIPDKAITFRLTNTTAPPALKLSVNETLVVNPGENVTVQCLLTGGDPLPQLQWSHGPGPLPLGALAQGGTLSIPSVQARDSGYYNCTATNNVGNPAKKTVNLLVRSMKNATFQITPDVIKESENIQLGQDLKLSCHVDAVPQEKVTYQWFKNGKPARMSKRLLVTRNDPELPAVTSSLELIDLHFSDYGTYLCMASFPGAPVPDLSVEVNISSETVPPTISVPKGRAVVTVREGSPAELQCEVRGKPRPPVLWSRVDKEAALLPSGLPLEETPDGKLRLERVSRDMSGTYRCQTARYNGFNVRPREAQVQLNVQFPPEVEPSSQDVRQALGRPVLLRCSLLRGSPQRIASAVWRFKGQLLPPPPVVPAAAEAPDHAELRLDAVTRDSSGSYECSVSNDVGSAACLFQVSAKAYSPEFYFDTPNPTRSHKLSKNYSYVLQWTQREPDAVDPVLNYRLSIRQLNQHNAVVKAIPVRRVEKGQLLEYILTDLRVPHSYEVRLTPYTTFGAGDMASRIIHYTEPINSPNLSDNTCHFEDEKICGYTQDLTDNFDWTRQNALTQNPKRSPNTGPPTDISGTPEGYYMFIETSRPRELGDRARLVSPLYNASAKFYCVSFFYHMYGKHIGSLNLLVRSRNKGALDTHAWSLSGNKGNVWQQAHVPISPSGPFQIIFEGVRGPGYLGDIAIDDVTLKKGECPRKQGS

The target of assay [2] is T2, human MDGA1 T135C/N313C soluble ectodomain, (His)6-tagged (human, UniProt Q8NFP4-1 22-920, T135C | N313C).
T2 sequence: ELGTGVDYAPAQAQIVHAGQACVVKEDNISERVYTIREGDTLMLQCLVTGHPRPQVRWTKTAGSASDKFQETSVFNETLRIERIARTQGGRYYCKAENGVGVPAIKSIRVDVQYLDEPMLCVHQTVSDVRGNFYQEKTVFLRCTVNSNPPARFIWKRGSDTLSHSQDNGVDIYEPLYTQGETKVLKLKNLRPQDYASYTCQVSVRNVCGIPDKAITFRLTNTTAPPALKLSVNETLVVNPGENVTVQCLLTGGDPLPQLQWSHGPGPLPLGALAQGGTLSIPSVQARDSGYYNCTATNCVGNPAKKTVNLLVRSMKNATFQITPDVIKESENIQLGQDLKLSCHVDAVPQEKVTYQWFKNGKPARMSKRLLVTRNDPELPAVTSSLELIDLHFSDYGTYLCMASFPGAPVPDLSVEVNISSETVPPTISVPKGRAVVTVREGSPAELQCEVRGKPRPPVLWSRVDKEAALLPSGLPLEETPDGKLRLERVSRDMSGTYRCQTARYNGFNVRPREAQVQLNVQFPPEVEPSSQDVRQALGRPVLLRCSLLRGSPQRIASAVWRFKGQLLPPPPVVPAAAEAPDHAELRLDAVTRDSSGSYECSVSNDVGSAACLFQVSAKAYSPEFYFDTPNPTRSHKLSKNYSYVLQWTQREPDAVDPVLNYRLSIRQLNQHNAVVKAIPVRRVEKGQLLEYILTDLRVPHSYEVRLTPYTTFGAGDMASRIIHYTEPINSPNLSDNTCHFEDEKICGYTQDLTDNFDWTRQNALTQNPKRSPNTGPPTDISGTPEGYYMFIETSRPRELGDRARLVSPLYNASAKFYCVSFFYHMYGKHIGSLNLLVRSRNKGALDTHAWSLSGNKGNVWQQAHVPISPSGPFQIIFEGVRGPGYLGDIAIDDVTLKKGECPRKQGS

Assay [3] deals with T3, human MDGA1 V314D soluble ectodomain, (His)6-tagged (human, UniProt Q8NFP4-1 22-920, V314D).
T3 sequence: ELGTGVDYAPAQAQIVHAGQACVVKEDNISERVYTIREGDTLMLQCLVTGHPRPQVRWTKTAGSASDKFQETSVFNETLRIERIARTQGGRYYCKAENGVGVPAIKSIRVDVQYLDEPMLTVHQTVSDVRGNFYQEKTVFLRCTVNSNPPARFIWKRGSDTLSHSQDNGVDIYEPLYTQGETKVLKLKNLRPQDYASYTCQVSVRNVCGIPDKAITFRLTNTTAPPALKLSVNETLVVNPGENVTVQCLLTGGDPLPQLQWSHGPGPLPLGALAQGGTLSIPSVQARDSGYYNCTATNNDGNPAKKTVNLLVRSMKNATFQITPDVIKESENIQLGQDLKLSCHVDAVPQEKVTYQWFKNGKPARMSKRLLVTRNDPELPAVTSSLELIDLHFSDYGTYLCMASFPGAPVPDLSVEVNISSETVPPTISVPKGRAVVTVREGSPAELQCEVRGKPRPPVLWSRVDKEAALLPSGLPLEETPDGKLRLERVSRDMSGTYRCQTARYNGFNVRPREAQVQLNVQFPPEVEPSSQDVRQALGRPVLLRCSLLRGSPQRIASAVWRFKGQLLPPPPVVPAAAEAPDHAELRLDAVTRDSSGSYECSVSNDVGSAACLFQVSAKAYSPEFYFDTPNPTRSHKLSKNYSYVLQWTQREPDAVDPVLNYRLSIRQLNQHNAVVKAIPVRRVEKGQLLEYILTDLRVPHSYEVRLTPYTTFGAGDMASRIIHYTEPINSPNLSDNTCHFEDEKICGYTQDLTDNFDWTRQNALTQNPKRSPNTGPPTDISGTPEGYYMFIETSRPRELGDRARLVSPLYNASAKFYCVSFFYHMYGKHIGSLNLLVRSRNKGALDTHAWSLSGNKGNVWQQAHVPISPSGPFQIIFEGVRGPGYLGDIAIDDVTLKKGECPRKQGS

Assay [4] deals with T4, human MDGA1 I336D soluble ectodomain, (His)6-tagged (human, UniProt Q8NFP4-1 22-920, I336D).
T4 sequence: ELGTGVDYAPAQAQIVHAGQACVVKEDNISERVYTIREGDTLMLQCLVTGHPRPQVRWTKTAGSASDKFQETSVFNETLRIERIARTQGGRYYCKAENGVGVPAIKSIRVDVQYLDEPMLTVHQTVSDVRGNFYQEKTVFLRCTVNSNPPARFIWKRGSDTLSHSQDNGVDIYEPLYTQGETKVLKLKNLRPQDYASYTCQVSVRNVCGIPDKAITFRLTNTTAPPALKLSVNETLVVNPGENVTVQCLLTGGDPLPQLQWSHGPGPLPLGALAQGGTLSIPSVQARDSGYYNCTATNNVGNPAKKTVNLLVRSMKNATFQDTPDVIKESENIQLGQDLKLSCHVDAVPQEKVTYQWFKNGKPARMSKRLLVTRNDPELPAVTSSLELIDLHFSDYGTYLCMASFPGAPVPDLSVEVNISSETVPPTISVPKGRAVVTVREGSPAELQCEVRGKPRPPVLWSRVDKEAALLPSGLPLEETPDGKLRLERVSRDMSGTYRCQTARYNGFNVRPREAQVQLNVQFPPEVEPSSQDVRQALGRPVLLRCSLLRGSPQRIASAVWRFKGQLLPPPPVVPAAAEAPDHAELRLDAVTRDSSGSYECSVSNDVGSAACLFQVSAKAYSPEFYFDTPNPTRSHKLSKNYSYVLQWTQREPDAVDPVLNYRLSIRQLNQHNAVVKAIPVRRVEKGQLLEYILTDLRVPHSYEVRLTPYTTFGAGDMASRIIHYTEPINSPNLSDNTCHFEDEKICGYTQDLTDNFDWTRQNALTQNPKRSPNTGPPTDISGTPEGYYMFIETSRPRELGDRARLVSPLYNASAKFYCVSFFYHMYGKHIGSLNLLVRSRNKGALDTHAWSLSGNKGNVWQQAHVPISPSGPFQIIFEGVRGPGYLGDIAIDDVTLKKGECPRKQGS

B1: extracellular domain of rat NLGN2 (residues V43-H612) with splice insert A (domain or fragment, UniProt Q62888-1 43-612, looked up)
chain: VVNTAYGRVRGVRRELNNEILGPVVQFLGVPYATPPLGARRFQPPEAPASWPGVRNATTLPPACPQNLHGALPAIMLPVWFTDNLEAAATYVQNQSEDCLYLNLYVPTEDGPLTKKRDEATLNPPDTDIRDSGKKPVMLFLHGGSYMEGTGNMFDGSVLAAYGNVIVATLNYRLGVLGFLSTGDQAAKGNYGLLDQIQALRWLSENIAHFGGDPERITIFGSGAGASCVNLLILSHHSEGLFQKAIAQSGTAISSWSVNYQPLKYTRLLAAKVGCDREDSTEAVECLRRKSSRELVDQDVQPARYHIAFGPVVDGDVVPDDPEILMQQGEFLNYDMLIGVNQGEGLKFVEDSAESEDGVSASAFDFTVSNFVDNLYGYPEGKDVLRETIKFMYTDWADRDNGEMRRKTLLALFTDHQWVAPAVATAKLHADYQSPVYFYTFYHHCQAEGRPEWADAAHGDELPYVFGVPMVGATDLFPCNFSKNDVMLSAVVMTYWTNFAKTGDPNQPVPQDTKFIHTKPNRFEEVVWSKFNSKEKQYLHIGLKPRVRDNYRANKVAFWLELVPHLHNLH
In turn, B1 yielded a Kd in assay [1] of 3.4 nM. Also, the binding result in assay [2], in assay [3] and in assay [4] was “binds” in each case.

As a reminder, the Kd is the constant that tells how readily two partners part at equilibrium. Low readings indicate a tighter complex, high ones a looser complex.

The values are drawn from article PMC10131064 (The Journal of Biological Chemistry, 2023).
